Among the data in publication PMC11252911 (Proceedings of the National Academy of Sciences of the …, 2024) are Kd values, retold here.

For experiment [1], the target named is Pwl2-3 (Magnaporthe oryzae). The experiment is described as follows: ITC. On the technique in general: In ITC the heat of successive injections is recorded.
The target in experiment [2] is Pwl2-2 (Magnaporthe oryzae). The experiment is described as follows: ITC.

Broadly, the Kd is the constant that tells how readily two partners part at equilibrium. In the case of “HMA domain of OsHIPP43 (residues 26 to 101) (from UniProt Q8LJL3 26-101) (domain or fragment)”, the figures for the Kd in experiment [1] and in experiment [2] were 35 nM and 141 nM, respectively.
